Results taken from PMC4619498.

Target: His-tagged recombinant Ebola virus glycoprotein (rGP) expressed in insect cells (Ebola virus (EBOV)) (UniProt Q05320)
Experiment: ELISA

Fab-KZ52
GP binding affinity (absorbance normalized by the negative control): 16.6
absorbance signal ratio between positive binding samples and blanks: 10.2
ratio of GP-binding affinity to HA-RBD affinity (GP/HA): 3.91

scFv-13C6
GP binding affinity (absorbance normalized by the negative control) (normalized units): 11.1
absorbance signal ratio between positive binding samples and blanks: 19.1
ratio of GP-binding affinity to HA-RBD affinity (GP/HA): 5

scFv-13F6
GP binding affinity (absorbance normalized by the negative control) (normalized units): 9.65
absorbance signal ratio between positive binding samples and blanks: 13.9
ratio of GP-binding affinity to HA-RBD affinity (GP/HA): 4.48
